Measurements taken from patent US20180015177A1 (Genentech, published 2018).
“And” between values parts separate entries of the source, which are not always exact repeats. Equal values may be shown once.

Experiments:
[1] = target: T1, human Ly6E, N-terminal gD-tagged, stably expressed on PC3 cells (human, UniProt Q16553 21-101); test: cell-based Ly6E competitive binding assay on human Ly6E PC3 cells; competitor mouse 9B12
T1 construct: GPI-linked protein on cells; also called hu Ly6E; human Ly6E transfected PC3 cells; not shown: N-terminal gD tag of the retroviral vector
T1 sequence: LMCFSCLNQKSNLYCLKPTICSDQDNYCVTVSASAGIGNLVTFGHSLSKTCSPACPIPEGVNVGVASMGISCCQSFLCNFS
Experimental: (§1) Cell-based Ly6E competitive binding assay—Cultured human Ly6E transfected PC3 cells were harvested with 5 mM EDTA containing PBS. Cells were washed with PBS and added onto a 384-well high binding plate (Meso Scale Discovery Technology (MSD); Gaithersburg, Md.). The plate was kept at room temperature for 1 hr to allow cells to adhere to the plate as described (See Lu, Y., Wong, W. L. & Meng, Y. G. A high throughput electrochemiluminescent cell-binding assay for therapeutic anti-CD20 antibody selection. Journal of Immunological Methods 314, 74-79 (2006)). The plate with cells was blocked with fetal bovine serum containing PBS for 1 hr and then cooled on ice. Serially diluted antibody variant samples were mixed with equal volume of fixed concentration of mouse 9B12 Ab. The mixtures were added onto the plates and incubated at 4° C. with gentle shaking for 1 hr.
(§2) The plate was then washed with cold PBS and an anti-mouse IgG Fc specific Ab (Jackson ImmunoReserach; West Grove, Pa.) labeled with sulfo-ruthenium tag was added to the plate as the detection reagent. The plate was incubated at 4° C. with gentle shaking for 1 hr. After incubation the plate was washed again, and MSD read buffer (MSD; Gaithersburg, Md.) was added onto the wells. The plate was read with a MSD SectorÒ imager 6000. The data was graphed and analyzed using KaleidaGraph software (Synergy Software; Reading, Pa.) to determine IC₅₀ values.

[2] = target: T1, human Ly6E, N-terminal gD-tagged, …; test: cell-based competitive binding on human Ly6E PC3 cells; competitor mouse 9B12
Experimental: as §1, §2

B1: humanized 9B12 variant v1 (antibody, V domains shown)
VH: EVQLVESGPALVKPTQTLTLTCTFSGFSLTGYSVNWIRQPPGKALEWLGMIWGDGSTDYNSALKSRLTISKDTSKNQVVLTMTNMDPVDTATYYCARDYYFNYASWFAYWGQGTLVTVSS
VL: DIQMTQSPSSLSASVGDRVTITCSASQGISNYLNWYQQKPGKAPKLLIYYTSNLHSGVPSRFSGSGSGTDFTLTISSLQPEDFATYYCQQYSELPWTFGQGTKVEIK
notes: IgG. k1 graft / VH2 graft + 49
binding result [1]: no binding

B2: humanized 9B12 variant v20 (antibody, V domains shown)
VH: EVQLVESGGGLVQPGGSLRLSCAVSGFSLTGYSVNWVRQAPGKGLEWLGMIWGDGSTDYNSALKSRLTISKDNSKSTVYLQMNSLRAEDTAVYYCARDYYFNYASWFAYWGQGTLVTVSS
VL: DIQMTQSPSSLSASVGDRVTITCSASQGISNYLNWYQQKPGKTVKLLIYYTSNLHSGVPSRFSGSGSGTDYTLTISSLQPEDFATYYCQQYSELPWTFGQGTKVEIK
notes: IgG. k1 graft 43+44+71 / VH3 graft + 24 + 48 + 67 + 71 + 76 + 78; Residue changes derived
IC50 [2]: 26 nM

B3: humanized 9B12 variant v9 (antibody, V domains shown)
VH: EVQLVESGGGLVQPGGSLRLSCAVSGFSLTGYSVNWVRQAPGKGLEWVGMIWGDGSTDYNSALKSRFTISRDNSKNTLYLQMNSLRAEDTAVYYCARDYYFNYASWFAYWGQGTLVTVSS
VL: DIQMTQSPSSLSASVGDRVTITCSASQGISNYLNWYQQKPGKTVKLLIYYTSNLHSGVPSRFSGSGSGTDFTLTISSLQPEDFATYYCQQYSELPWTFGQGTKVEIK
notes: IgG. k1 graft 43+44 / VH3 graft + 24; Residue changes derived
IC50 [2]: 34 nM and 44 nM

B4: humanized 9B12 variant v14 (antibody, V domains shown)
VH: EVQLVESGGGLVQPGGSLRLSCAVSGFSLTGYSVNWVRQAPGKGLEWVGMIWGDGSTDYNSALKSRFTISRDNSKNTLYLQMNSLRAEDTAVYYCARDYYFNYASWFAYWGQGTLVTVSS
VL: DIQMTQSPSSLSASVGDRVTITCSASQGISNYLNWYQQKPGKTVKLLIYYTSNLHSGVPSRFSGSGSGTDYTLTISSLQPEDFATYYCQQYSELPWTFGQGTKVEIK
notes: IgG. k1 graft 43+44+71 / VH3 graft + 24; Residue change derived
IC50 [2]: 39 nM and 56 nM

B5: humanized 9B12 variant v10 (antibody, V domains shown)
VH: EVQLVESGGGLVQPGGSLRLSCAASGFSLTGYSVNWVRQAPGKGLEWVGMIWGDGSTDYNSALKSRFTISKDNSKNTVYLQMNSLRAEDTAVYYCARDYYFNYASWFAYWGQGTLVTVSS
VL: DIQMTQSPSSLSASVGDRVTITCSASQGISNYLNWYQQKPGKTVKLLIYYTSNLHSGVPSRFSGSGSGTDFTLTISSLQPEDFATYYCQQYSELPWTFGQGTKVEIK
notes: IgG. k1 graft 43+44 / VH3 graft + 71 + 78; Residue changes derived
IC50 [2]: 61 nM

B6: humanized 9B12 variant v15 (antibody, V domains shown)
VH: EVQLVESGGGLVQPGGSLRLSCAASGFSLTGYSVNWVRQAPGKGLEWVGMIWGDGSTDYNSALKSRFTISKDNSKNTVYLQMNSLRAEDTAVYYCARDYYFNYASWFAYWGQGTLVTVSS
VL: DIQMTQSPSSLSASVGDRVTITCSASQGISNYLNWYQQKPGKTVKLLIYYTSNLHSGVPSRFSGSGSGTDYTLTISSLQPEDFATYYCQQYSELPWTFGQGTKVEIK
notes: IgG. k1 graft 43+44+71 / VH3 graft + 71 + 78; Residue changes derived
IC50 [2]: 42 nM and 52 nM

B7: humanized 9B12 variant v18 (antibody, V domains shown)
VH: EVQLVESGPALVKPTQTLTLTCTVSGFSLTGYSVNWIRQPPGKALEWLGMIWGDGSTDYNSALKSRLTISKDNSKSQVVLTMTNMDPVDTATYYCARDYYFNYASWFAYWGQGTLVTVSS
VL: DIQMTQSPSSLSASVGDRVTITCSASQGISNYLNWYQQKPGKTVKLLIYYTSNLHSGVPSRFSGSGSGTDYTLTISSLQPEDFATYYCQQYSELPWTFGQGTKVEIK
notes: IgG. k1 graft 43+44+71 / VH2 graft + 24 + 49 + 73 + 76; Residue changes derived
IC50 [2]: 22 nM

B8: humanized 9B12 variant v16 (antibody, V domains shown)
VH: EVQLVESGPALVKPTQTLTLTCTVSGFSLTGYSVNWVRQPPGKALEWLGMIWGDGSTDYNSALKSRLTISKDTSKNQVVLTMTNMDPVDTATYYCARDYYFNYASWFAYWGQGTLVTVSS
VL: DIQMTQSPSSLSASVGDRVTITCSASQGISNYLNWYQQKPGKTVKLLIYYTSNLHSGVPSRFSGSGSGTDYTLTISSLQPEDFATYYCQQYSELPWTFGQGTKVEIK
notes: IgG. k1 graft 43+44+71 / VH2 graft + 24 + 37 + 49; Residue change derived
IC50 [2]: 27 nM

B9: humanized 9B12 variant v23 (antibody, V domains shown)
VH: EVQLVESGPALVKPTQTLTLTCTVSGFSLTGYSVNWIRQPPGKALEWLGMIWGDGSTDYNSALKSRLTISKDNSKSQVVLTMTNMDPVDTATYYCARDYYFNYASWFAYWGQGTLVTVSS
VL: DIQMTQSPSSLSASVGDRVTITCSASQGISNYLNWYQQKPGKAPKLLIYYTSNLHSGVPSRFSGSGSGTDYTLTISSLQPEDFATYYCQQYSELPWTFGQGTKVEIK
notes: IgG. k1 graft + 71 / VH2 graft + 24 + 49 + 73 + 76; Residue changes derived
IC50 [2]: 54 nM

B10: humanized 9B12 variant v7 (antibody, V domains shown)
VH: EVQLVESGPALVKPTQTLTLTCTVSGFSLTGYSVNWIRQPPGKALEWLGMIWGDGSTDYNSALKSRLTISKDTSKNQVVLTMTNMDPVDTATYYCARDYYFNYASWFAYWGQGTLVTVSS
VL: DIQMTQSPSSLSASVGDRVTITCSASQGISNYLNWYQQKPGKTVKLLIYYTSNLHSGVPSRFSGSGSGTDFTLTISSLQPEDFATYYCQQYSELPWTFGQGTKVEIK
notes: IgG. k1 graft 43+44 / VH2 graft + 24 + 49; Residue change derived
IC50 [2]: 24 nM and 36 nM

B11: humanized 9B12 variant v19 (antibody, V domains shown)
VH: EVQLVESGPALVKPTQTLTLTCTVSGFSLTGYSVNWVRQPPGKALEWLGMIWGDGSTDYNSALKSRLTISKDNSKSQVVLTMTNMDPVDTATYYCARDYYFNYASWFAYWGQGTLVTVSS
VL: DIQMTQSPSSLSASVGDRVTITCSASQGISNYLNWYQQKPGKTVKLLIYYTSNLHSGVPSRFSGSGSGTDYTLTISSLQPEDFATYYCQQYSELPWTFGQGTKVEIK
notes: IgG. k1 graft 43+44+71 / VH2 graft + 24 + 37 + 49 + 73 + 76; Residue changes derived
IC50 [2]: 28 nM

B12: humanized 9B12 variant v25 (antibody, V domains shown)
VH: EVQLVESGGGLVQPGGSLRLSCAVSGFSLTGYSVNWVRQAPGKGLEWLGMIWGDGSTDYNSALKSRLTISKDNSKSTVYLQMNSLRAEDTAVYYCARDYYFNYASWFAYWGQGTLVTVSS
VL: DIQMTQSPSSLSASVGDRVTITCSASQGISNYLNWYQQKPGKAPKLLIYYTSNLHSGVPSRFSGSGSGTDYTLTISSLQPEDFATYYCQQYSELPWTFGQGTKVEIK
notes: IgG. k1 graft + 71 / VH3 graft + 24 + 48 + 67 + 71 + 76 + 78; Residue changes derived
IC50 [2]: 56 nM

B13: humanized 9B12 variant v4 (antibody, V domains shown)
VH: EVQLVESGGGLVQPGGSLRLSCAVSGFSLTGYSVNWVRQAPGKGLEWVGMIWGDGSTDYNSALKSRFTISRDNSKNTLYLQMNSLRAEDTAVYYCARDYYFNYASWFAYWGQGTLVTVSS
VL: DIQMTQSPSSLSASVGDRVTITCSASQGISNYLNWYQQKPGKAPKLLIYYTSNLHSGVPSRFSGSGSGTDFTLTISSLQPEDFATYYCQQYSELPWTFGQGTKVEIK
notes: IgG. k1 graft / VH3 graft + 24
IC50 [2]: 98 nM and 70 nM

B14: humanized 9B12 variant v5 (antibody, V domains shown)
VH: EVQLVESGGGLVQPGGSLRLSCAASGFSLTGYSVNWVRQAPGKGLEWVGMIWGDGSTDYNSALKSRFTISKDNSKNTVYLQMNSLRAEDTAVYYCARDYYFNYASWFAYWGQGTLVTVSS
VL: DIQMTQSPSSLSASVGDRVTITCSASQGISNYLNWYQQKPGKAPKLLIYYTSNLHSGVPSRFSGSGSGTDFTLTISSLQPEDFATYYCQQYSELPWTFGQGTKVEIK
notes: IgG. k1 graft / VH3 graft + 71 + 78; Residue changes derived
IC50 [2]: 70 nM

B15: humanized 9B12 variant v17 (antibody, V domains shown)
VH: EVQLVESGPALVKPTQTLTLTCTVSGFSLTGYSVNWIRQPPGKALEWLGMIWGDGSTDYNSALKSRLTISKDNSKNQVVLTMTNMDPVDTATYYCARDYYFNYASWFAYWGQGTLVTVSS
VL: DIQMTQSPSSLSASVGDRVTITCSASQGISNYLNWYQQKPGKTVKLLIYYTSNLHSGVPSRFSGSGSGTDYTLTISSLQPEDFATYYCQQYSELPWTFGQGTKVEIK
notes: IgG. k1 graft 43+44+71 / VH2 graft + 24 + 49 + 73; Residue change derived
IC50 [2]: 29 nM

B16: humanized 9B12 variant v2 (antibody, V domains shown)
VH: EVQLVESGPALVKPTQTLTLTCTVSGFSLTGYSVNWIRQPPGKALEWLGMIWGDGSTDYNSALKSRLTISKDTSKNQVVLTMTNMDPVDTATYYCARDYYFNYASWFAYWGQGTLVTVSS
VL: DIQMTQSPSSLSASVGDRVTITCSASQGISNYLNWYQQKPGKAPKLLIYYTSNLHSGVPSRFSGSGSGTDFTLTISSLQPEDFATYYCQQYSELPWTFGQGTKVEIK
notes: IgG. k1 graft / VH2 graft + 24 + 49; Residue changes derived against v12
IC50 [2]: 28 nM and 37 nM

B17: humanized 9B12 variant v22 (antibody, V domains shown)
VH: EVQLVESGPALVKPTQTLTLTCTVSGFSLTGYSVNWIRQPPGKALEWLGMIWGDGSTDYNSALKSRLTISKDNSKNQVVLTMTNMDPVDTATYYCARDYYFNYASWFAYWGQGTLVTVSS
VL: DIQMTQSPSSLSASVGDRVTITCSASQGISNYLNWYQQKPGKAPKLLIYYTSNLHSGVPSRFSGSGSGTDYTLTISSLQPEDFATYYCQQYSELPWTFGQGTKVEIK
notes: IgG. k1 graft + 71 / VH2 graft + 24 + 49 + 73; Residue changes derived
IC50 [2]: 59 nM

B18: humanized 9B12 variant v21 (antibody, V domains shown)
VH: EVQLVESGPALVKPTQTLTLTCTVSGFSLTGYSVNWVRQPPGKALEWLGMIWGDGSTDYNSALKSRLTISKDTSKNQVVLTMTNMDPVDTATYYCARDYYFNYASWFAYWGQGTLVTVSS
VL: DIQMTQSPSSLSASVGDRVTITCSASQGISNYLNWYQQKPGKAPKLLIYYTSNLHSGVPSRFSGSGSGTDYTLTISSLQPEDFATYYCQQYSELPWTFGQGTKVEIK
notes: IgG. k1 graft + 71 / VH2 graft + 24 + 37 + 49; Residue changes derived
IC50 [2]: 82 nM

B19: humanized 9B12 variant v24 (antibody, V domains shown)
VH: EVQLVESGPALVKPTQTLTLTCTVSGFSLTGYSVNWVRQPPGKALEWLGMIWGDGSTDYNSALKSRLTISKDNSKSQVVLTMTNMDPVDTATYYCARDYYFNYASWFAYWGQGTLVTVSS
VL: DIQMTQSPSSLSASVGDRVTITCSASQGISNYLNWYQQKPGKAPKLLIYYTSNLHSGVPSRFSGSGSGTDYTLTISSLQPEDFATYYCQQYSELPWTFGQGTKVEIK
notes: IgG. k1 graft + 71 / VH2 graft + 24 + 37 + 49 + 73 + 76; Residue changes derived
IC50 [2]: 53 nM
